Measurements as given in patent publication US20160145328A1 (published 2016).
Numbering of substitutions follows the chain as printed. Names may count otherwise.

B1: scFv DP47 VH A33D - linker - common VL (scFv, name in Kabat numbering)
scFv: QVQLLESGGGLVQPGGSLRLSCAASGFTFSSYDMSWVRQAPGKGLEWVSAISGSGGSTYYADSVKGRFTISRDNSKNTLYLQMNSLRAEDTAVYYCAKSYGAFDYWGQGTLVTVSSGGGGSGGGGSGGGGSTDIQMTQSPSSLSASVGDRVTITCRASQSISSYLNWYQQKPGKAPKLLIYAYSDLQSGVPSGFSGSGSGTDFTLTISSLQPEDFATYYCQQLMTHPTTFGQGTKVEIKR
notes: also called A33D (scFv)
B2: scFv DP47 VH S31D - linker - common VL (scFv)
scFv: B1 scFv with S31D, D33A
notes: also called S31D (scFv)
B3: scFv DP47 VH S35G - linker - common VL (scFv, name in Kabat numbering)
scFv: B1 scFv with D33A, S35G
notes: also called S35G (scFv)
B4: scFv DP47 VH Y32E - linker - common VL (scFv)
scFv: B1 scFv with Y32E, D33A
notes: also called Y32E (scFv)
B5: scFv DP47 VH T28R - linker - common VL (scFv, name in Kabat numbering)
scFv: B1 scFv with T28R, D33A
notes: also called T28R (scFv)

Target: T1, protein A (UniProt P38507 37-477)
T1 construct: also called Protein A superantigen
Assay: Heat/Cool phage ELISA: phage-displayed scFv, 80 C 10 min then 4 C 10 min, captured on coated protein A; signal as % of untreated sample
Method: The aggregation-resistance of clones was analyzed by measuring retention of signal after heat incubation in a phage ELISA format (McCafferty et al., 1990; Jespers et al., 2004). Wells of a Nunc Maxisorp Immuno-plate were coated overnight with protein A at a concentration of about 5 μg/ml in phosphate-buffered saline (PBS). The plate was washed once with PBS and blocked with about 4% (w/v) milk powder diluted in PBS (MPBS). Single colonies were picked from agar plates and grown overnight in 2×TY medium (containing about 16 g/L tryptone; about 10 g/L yeast extract; about 5 g/L NaCl, pH 7.0) supplemented with about 15 μg/ml tetracycline shaking at about 30° C. Cells were removed by centrifugation and phages were biotinylated directly in the culture supernatant by adding biotin-PEO₄-N-hydroxysuccinimide (Pierce; about 50 μM final concentration). For heat selection, supernatant was first incubated at about 80° C. for about 10 min and then at about 4° C. for about 10 min. Supernatant was added to the blocked ELISA wells. After three washes with PBS, bound phage particles were detected using an Extravidin-HRP conjugate (Sigma) and 3,3′,5,5′-tetramethylbenzidine (TMB) substrate. Absorbance was calculated by subtracting measurements at 450 and 650 nm.
The DP47-CDR1 mutants described above were paired with a common single variable light chain (VL; SEQ ID NO: 3) via a linker (SEQ ID NO: 4) in a scFv format (see the Materials and Methods section for full experimental details). […] Correctly folded scFv were captured by protein A ELISA and the absorbance signal of the treated sample was calculated as a percentage of the untreated sample.

Binder | Retained binding to protein A [%]
B1 | 22
B2 | 29
B3 | 5
B4 | 27
B5 | 4
